Experimental data reported in publication PMC11183095, “PKM2 functions as a histidine kinase to phosphorylate PGAM1 and increase glycolysis shunts in cancer” (The EMBO Journal, 2024).

Target: T1, Recombinant GST-PKM2 (human, UniProt P14618 1-531)
T1 construct: pyruvate kinase M2 (PKM2), human cDNA in pGEX-6P-1; source: E. coli BL21 (DE3), purified (glutathione resin, dialysed in PBS)
Test: pull-down; recombinant His-PGAM1 immobilised on Ni-beads, mixed with recombinant GST-PKM2 or GST-ENO1; eluate analysed by western blot
Settings: both partners purified

T1 sequence (P14618 whole entry): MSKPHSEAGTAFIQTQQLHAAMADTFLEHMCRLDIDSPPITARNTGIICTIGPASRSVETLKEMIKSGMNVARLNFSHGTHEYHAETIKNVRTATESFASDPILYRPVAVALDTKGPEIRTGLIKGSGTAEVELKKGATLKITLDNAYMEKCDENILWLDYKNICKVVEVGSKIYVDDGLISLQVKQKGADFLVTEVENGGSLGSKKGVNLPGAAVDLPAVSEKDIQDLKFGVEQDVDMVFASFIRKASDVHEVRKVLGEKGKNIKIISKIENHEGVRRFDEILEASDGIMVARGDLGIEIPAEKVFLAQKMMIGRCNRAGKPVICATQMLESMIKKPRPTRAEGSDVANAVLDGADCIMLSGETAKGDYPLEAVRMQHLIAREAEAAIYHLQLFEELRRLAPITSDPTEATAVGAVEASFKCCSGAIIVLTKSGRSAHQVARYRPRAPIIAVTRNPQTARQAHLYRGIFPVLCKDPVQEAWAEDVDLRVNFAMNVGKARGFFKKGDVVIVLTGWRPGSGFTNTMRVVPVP

B1: Recombinant His-PGAM1 (enzyme, human)
chain: MAAYKLVLIRHGESAWNLENRFSGWYDADLSPAGHEEAKRGGQALRDAGYEFDICFTSVQKRAIRTLWTVLDAIDQMWLPVVRTWRLNERHYGGLTGLNKAETAAKHGEAQVKIWRRSYDVPPPPMEPDHPFYSNISKDRRYADLTEDQLPSCESLKDTIARALPFWNEEIVPQIKEGKRVLIAAHGNSLRGIVKHLEGLSEEAIMELNLPTGIPIVYELDKNLKPIKPMQFLGDEETVRKAMEAVAAQGKAKK
notes: phosphoglycerate mutase 1 (PGAM1), human cDNA in pET-28a; also called His-tagged PGAM1; source: E. coli BL21 (DE3), purified (Ni resin, dialysed in PBS)
- binding result: binds
